Drawing on paper PMC7907217 (Biochemistry and Biophysics Reports, 2021), this text covers Kd for one molecule.

The target of assay [1] is T1, 3D7 PfAMA1 (DI + DII) (Plasmodium falciparum 3D7, UniProt Q7KQK5 104-438).
T1 sequence (looked up): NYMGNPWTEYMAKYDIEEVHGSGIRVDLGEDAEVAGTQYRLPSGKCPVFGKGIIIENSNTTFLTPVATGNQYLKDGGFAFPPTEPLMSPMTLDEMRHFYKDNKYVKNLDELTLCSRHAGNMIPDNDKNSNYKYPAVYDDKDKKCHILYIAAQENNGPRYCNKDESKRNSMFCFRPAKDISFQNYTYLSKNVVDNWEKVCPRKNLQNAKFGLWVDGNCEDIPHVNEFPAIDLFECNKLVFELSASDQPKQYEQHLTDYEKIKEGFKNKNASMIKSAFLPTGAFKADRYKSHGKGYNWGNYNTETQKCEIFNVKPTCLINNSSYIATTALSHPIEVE
In words: ITC. For orientation: In ITC the heat of successive injections is recorded.

Assay [2] deals with T1, 3D7 PfAMA1 (DI + DII). The assay is described as follows: SPR. (In general: SPR reads the build-up and loss of mass on a sensor chip optically.)

“And” between values parts separate entries of the source, which are not always exact repeats. Equal values may be shown once.

Consider DITQQAKDIGAGPVASCFTTRMSPPQQICLNSVVNTALS (peptide, UniProt Q8IKV6 2021-2059, looked up) [PfRON2ed peptide (Asp2021-Ser2059)], for which the Kd was 122 nM and 93.5 to 137 nM with 3D7 PfAMA1 (DI + DII) [1]; 21.9 ± 1.89 nM in the assay with 3D7 PfAMA1 (DI + DII) [2].

The Kd is the equilibrium constant for the complex coming apart.
